Measured values as given in patent US20210260216A1 (OSPEDALE SAN RAFFAELE S R L, published 2021).

Target: p53 (Homo sapiens (Human), UniProt P04637 1-393)
Assay: cell-based or functional assay

Chain of p53 (P04637 whole entry): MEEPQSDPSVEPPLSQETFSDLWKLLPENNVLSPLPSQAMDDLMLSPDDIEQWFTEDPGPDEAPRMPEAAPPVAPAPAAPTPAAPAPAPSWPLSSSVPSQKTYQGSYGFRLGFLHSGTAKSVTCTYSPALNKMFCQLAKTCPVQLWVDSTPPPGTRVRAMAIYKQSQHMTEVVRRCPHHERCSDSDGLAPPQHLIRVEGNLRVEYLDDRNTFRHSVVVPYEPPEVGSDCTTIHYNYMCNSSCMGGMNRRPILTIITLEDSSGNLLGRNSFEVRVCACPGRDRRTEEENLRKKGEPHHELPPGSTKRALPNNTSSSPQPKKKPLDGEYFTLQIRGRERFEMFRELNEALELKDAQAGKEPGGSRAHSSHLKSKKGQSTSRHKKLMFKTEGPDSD

B1: GSE56 (p53 dominant negative peptide) (peptide)
peptide: MDGWCPGRDRRTEEENFRKKEEHCPELPPGSAKRALPTSTSSSPQQKKKPLDGEYFTLKIRGRERFEMFRELNEALELKDARAAEESGDSRAHSSYPKIVS
With B1 the “fold decrease in TaqMan assay of CDKN1A (p21) gene fold expression at 24 hours post-editing” value was about 3 fold.
